# B1: RNASE4: recombinant human RNASE4 protein from pET11 expression in E. coli, purified by reversed-phase HPLC; added exogenously (protein, UniProt P34096 29-147, looked up)
# Ribonuclease 4: QDGMYQRFLRQHVHPEETGGSDRYCNLMMQRRKMTLYHCKRFNTFIHEDIWNIRSICSTTNIQCKNGKMNCHEGVVKVTDCRDTGSSRAPNCRYRAIASTRRVVIACEGNPQVPVHFDG
# Experiments:
# Format in all cases: cell-based, human
# [1] = tested on: AXL phosphorylation in DU145 cells; test: AXL phosphorylation (phospho-RTK array, immunoblot); conditions: serum-starved DU145, 1 μg/ml protein
# Procedure: FIGS. 12A-F. RNASE4 induces AXL phosphorylation. (A) Human phospho-receptor tyrosine kinase (RTK) antibody array analysis. Serum-starved DU145 cells were treated with or without 1 μg/ml of RNASE4 for 5 minutes. A total of 1.5 mg cell lysate protein was blotted on each array membrane. […] (B) Immunoblot analysis of RNASE4-stimulated AXL phosphorylation. DU145 cells were serum-starved overnight and treated with 1 μg/ml of RNASE4 for the indicated time. Cell lysates were analyzed by antibodies against total AXL and phospho-AXL, with β-actin as the loading control. Left panels, immunoblots; right panel, Image J quantification of p-AXL normalized to total AXL. (C) Immunoblot analysis of phospho-AXL in response to stimulation by ANG, RNase A, and RNASE4. DU145 cells were serum-starved overnight and treated with 1 μg/ml of ANG, RNase A, or RNASE4 for 15 minutes. Left panels, immunoblots; right panel, quantification. (D) Effect of AXL inhibitor R428 on RNASE4-induced cell proliferation. Serum-starved DU145 cells were incubated with 1 or 3 μM R428 for 3 hours and then stimulated by 1 μg/ml of RNASE4 for 3 days. Cell numbers were determined by MTT assay. Data shown are means±SEM of a representative experiment (in triplicates) of 3 independent repeats. **P≤0.01 and ***P≤0.001, by unpaired two-tailed Student's t test. (E) Effect of AXL inhibitor R428 on RNASE4-induced AKT and P6 phosphorylation. Serum-starved DU145 cells were incubated with 1 or 3 μM R428 for 3 hours and then stimulated by 1 μg/ml of RNASE4 for 5 minutes. Cell lysates were analyzed for AKT and P6 phosphorylation by immunoblotting. Top panels, immunoblots; bottom panels, quantification of phospho-AKT and phospho-S6 by Image J analyses normalized to total AKT and P6, respectively. (F) Schematic presentation of proposed involvement of AXL in RNASE4-stimulated cellular events.
# Human Phospho-RTK Arrays were purchased from R&D Systems. […] Protein concentrations were quantified by Bradford Assay and 1.5 mg cell lysate was used per array. Pixel densities on were analyzed by ImageJ. […]
# DU145 cells = test: RNASE4 knockdown, cell proliferation (Coulter counter); conditions: DU145, exogenous RNASE4 1 μg/ml
# Excerpt: FIGS. 14A-D. RNASE4 knockdown inhibits DU145 cell proliferation in vitro and colony formation in soft agar. (A) Immunoblot analysis of RNASE4 in DU145 cells stably transfected with shControl, shRNASE4-1, and shRNASE4-2. (B) qRT-PCR analysis of RNASE4 mRNA normalized to GAPDH in DU145 cells stably transfected with shControl, shRNASE4-1, and shRNASE4-2. (C) Effect of RNASE4 knockdown on cell proliferation. Cell numbers were counted by Coulter counter. Exogenous RNASE4, when presented, was at the concentration of 1 μg/ml. Data shown are from a representative experiment in triplicates of 3 independent experiments. (D) Effects of RNASE4 knockdown on colonies formation and growth of DU145 cells in soft agar. The same numbers of control and RNASE4 knockdown cells were seeded in soft agar, and grown in the absence or presence of 1 μg/ml of RNASE4 for 14 days. Colonies were counted and size measured on a Nikon Eclipse ti microscope. Top panels, representative images of colonies; scale bars=100 μm. Bottom panels, quantification of DU145 cell colonies and sizes in soft agar. Data shown are means±SEM of five randomly selected fields per dish from a representative experiment. **P≤0.01 and ***P≤0.001, by two-tailed Student's t test.
# (§1) Lentiviral mediated shRNA system (pGIPZ, Open Biosystems) was used to generate control and RNASE4 knockdown cell lines. […]
# PC-3 cells = test: RNASE4 knockdown, colony formation in soft agar; conditions: PC-3, exogenous RNASE4 1 μg/ml, 14 days
# Excerpt: FIGS. 13A-D. RNASE4 knockdown reduces prostate cancer cell proliferation in vitro and colony formation in soft agar. (A) Immunoblot analysis of RNASE4 in PC-3 cells stably transfected with shControl, shRNASE4-1, and shRNASE4-2. (B) qRT-PCR analysis of RNASE4 mRNA normalized to GAPDH in PC-3 cells stably transfected with shControl, shRNASE4-1, and shRNASE4-2. (C) Effect of RNASE4 knockdown on cell proliferation. Cell numbers were counted by a Coulter counter. Exogenous RNASE4, when presented, was at the concentration of 1 μg/ml. Data shown are from representative experiment (in triplicates) of 3 independent repeats. (D) Effects of RNASE4 knockdown on colonies formation and growth of PC-3 cells in soft agar. The same numbers of control and RNASE4 knockdown cells were seeded in soft agar, and grown in the absence or presence of 1 μg/ml of RNASE4 for 14 days. Colonies were counted and size measured on a Nikon Eclipse ti microscope. Left panels, representative images of colonies; scale bars=100 μm. Right panels, quantification of colony numbers and sizes. Data shown are means±SEM from five randomly selected fields per dish from a representative experiment. *P≤0.05, **P≤0.01, and ***P≤0.001, by two-tailed Student's t test.
# as §1
molecule,measurement,setting,value
B1,phosphorylation of AXL,[1],induced phosphorylation
same,rescue of the effect of RNASE4 knockdown on cell proliferation,DU145 cells,able to rescue
same,rescue of the effect of RNASE4 knockdown on colony formation,PC-3 cells,able to rescue
